In publication PMC5492955:

Molecular target: the single-site mutations V130C and L210C
Experiment: radioligand binding

“glucagon (from UniProt P01275) (peptide)” was tested, and the glucagon binding (% of WT) was 50%.
